Values of other authors, collected in article PMC9161494.

Target: EGFR (Homo sapiens) (UniProt P00533)

For PEPDG278D (from UniProt P12955), the Kd is listed as 0.0177 µM.
